Drawing on paper PMC2845718 (2009), this text covers Kd for two molecules.

One assay has as its target Stingin-2. In words: SPR. (In general: In SPR one partner is held on a chip, and binding of the other changes the refractive index at the surface.)
For a further assay, the target named is Stingin-1. Description: SPR.
For a further assay, the target named is Stingin-4. Description: SPR competition.

B1: MDM2 25-109 (protein)
chain: ETLVRPKPLLLKLLKSVGAQKDTYTMKEVLFYLGQYIMTKRLYDEKQQHIVYCSNDLLGDLFGVPSFSVKEHRKIYTMIYRNLVV
Broadly, the Kd is the concentration at which binding is half-saturated. On to B1, for which the Kd with Stingin-2 is 35.2 nM; with Stingin-1, 25.1 nM.

B2: MDMX 24-108 (protein)
chain: INQVRPKLPLLKILHAAGAQGEMFTVKEVMHYLGQYIMVKQLYDQQEQHMVYCGGDLLGELLGRQSFSVKDPSPLYDMLRKNLVT
Turning to B2, the Kd in the assay with Stingin-2 amounted to 18 nM; with Stingin-1, 11.4 nM; in the assay with Stingin-4, 252 nM.
